We go through 4 molecules from patent US20160237154A1 (SORRENTO THERAPEUTICS, published 2016).

In assay [1] the target is T1, Recombinant human CTLA4/His (human, UniProt P16410 36-162, limits assumed).
T1 construct: not shown: His tag
T1 sequence (looked up): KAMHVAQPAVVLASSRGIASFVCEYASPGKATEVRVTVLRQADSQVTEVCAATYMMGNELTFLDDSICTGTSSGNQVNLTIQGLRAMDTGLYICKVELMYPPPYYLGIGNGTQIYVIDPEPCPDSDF
In words: SPR (BiaCore), antibody captured on anti-human Fc, His-tagged analyte, 1:1 model. On the procedure:
The affinity of antibody CT1E1 for human CTLA4 was also determined using surface plasmon resonance (BiaCore). Anti-human Fc antibody (GE, BR-1008-39) was immobilized on CM5 sensor chip to approximately 1000 RU using standard NHS/EDC coupling methodology. Antibodies (about 10 μg/ml) were captured for 60 s at a flow rate 10 ul/min Recombinant human […] was serially diluted in running buffer (HBS-EP). All measurements were conducted in HBS-EP buffer with a flow rate of 30 μL/min. The antibody was diluted appropriately to obtain a series of concentrations. A 1:1 (Langmuir) binding model was used to fit the data. The Chi2 (chi-squared) value was used as a guideline for fitting quality. Results from the affinity studies are provided below in Table 2.
For orientation: Surface plasmon resonance follows binding to a sensor surface in real time, without labels.

The target in assay [2] is T2, recombinant human CTLA4 (as human Fc fusion) (human, UniProt P16410 37-162, limits assumed).
T2 construct: not shown: human Fc
T2 sequence (looked up): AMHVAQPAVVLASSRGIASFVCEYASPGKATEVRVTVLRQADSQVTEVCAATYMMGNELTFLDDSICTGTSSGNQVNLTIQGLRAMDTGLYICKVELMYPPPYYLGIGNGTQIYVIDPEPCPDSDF
In words: blocking ELISA: serially diluted IgG pre-mixed with recombinant human CTLA4-Fc, transferred to a Ni-NTA plate coated with His-tagged human CD80 (the blocked ligand); HRP anti-human Fc, OD 450. On the procedure: (§1) Assays were performed to determine the ability of antibody CT1E1 to inhibit CD80 and CD86 activity. A 96-well Ni-NTA plate was coated with 1 μg/mL recombinant human CD80 or CD86 with hexahistidine tag at room temperature for 1 h. Pre-mixed 30 μL serial 3-fold diluted IgGs (started from 25 μg/mL) and 30 μL of […] recombinant human CTLA4 (as human Fc fusion) and incubated the mixtures for 30 minutes, then washed the plate with PBS-Tween (PBST) 3 times. The mixtures were transferred 50 μL to the ELISA plate and incubated 30 min with shaking. The plate was washed 3 times with PBST, then horseradish peroxidase (HRP)-conjugated goat anti-human Fc (1:500 in casein) was added, then 3,3′,5,5′-Tetramethylbenzidine (TMB) was added as substrate and developed 30 min. 2M H₂SO₄ was used to stop the reaction and the OD was read at 450 nm.

In assay [3] the target is T3, mouse CTLA4/His (mouse, UniProt P09793 36-162, limits assumed).
T3 construct: also called murine CTLA4; not shown: His tag
In words: ELISA, CTLA4/His captured on Ni-NTA plate, antibody ~1 ug/mL, anti-human Fc-HRP. On the procedure:
Using a 96-well Ni-NTA plate recombinant human CTLA4/His, cynomolgus CTLA4/His or mouse CTLA4/His @ 1 μg/mL were captured. The plate was incubated for 30 min at room temperature, washed 3 times with PBS-Tween (PBST), then anti-CTLA4 antibodies (˜1 μg/mL) diluted in casein were added and incubated for 30 min with shaking. The plate was washed 3 times with PBST, horseradish peroxidase (HRP)-conjugated goat anti-human Fc (1:500 in casein) was added, then 3,3′,5,5′-Tetramethylbenzidine (TMB) was added as substrate and developed about 5 min. 2M H₂SO₄ was used to stop the reaction and the OD was read at 450 nm.
(ELISA stands for enzyme-linked immunosorbent assay.)

Assay [4] has as its target T2, recombinant human CTLA4 (as human Fc …). The experiment in a line: blocking ELISA: serially diluted IgG pre-mixed with recombinant human CTLA4-Fc, transferred to a Ni-NTA plate coated with His-tagged human CD86 (the blocked ligand); HRP anti-human Fc, OD 450. The procedure:
as §1

The target in assay [5] is T1, Recombinant human CTLA4/His. The experiment in a line: SPR (Biacore), antibody captured on anti-human Fc, CTLA4/His as analyte, 1:1 model. On the procedure: This example illustrates binding affinities of exemplary anti-CTLA4 antibodies disclosed herein. Affinities were determined using surface plasmon resonance (Biacore). Briefly, Anti-human Fc antibody (GE, BR-1008-39) was immobilized on CM5 sensor chip to approximately 1000 RU using standard NHS/EDC coupling methodology. Antibodies (about 10 μg/ml) were captured for 60 s at a flow rate 10 μl/min Recombinant human CTLA4/His was serially diluted in running buffer (HBS-EP). All measurements were conducted with a flow rate of 30 μL/min Surfaces were regenerated with 3M MgCl₂ for 60 s. A 1:1 (Langmuir) binding model was used to fit the data.

In assay [6] the target is T4, human CTLA4 (human, UniProt P16410 36-161, limits assumed).
T4 sequence (looked up): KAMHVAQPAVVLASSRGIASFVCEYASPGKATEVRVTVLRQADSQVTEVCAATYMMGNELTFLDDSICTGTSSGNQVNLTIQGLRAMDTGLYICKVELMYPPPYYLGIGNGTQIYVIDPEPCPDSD
In words: SPR (BiaCore).

The target in assay [7] is T4, human CTLA4. In words: selection of human antibodies; method not described.

B1: CT1E1 (antibody, V domains shown)
VH: EVQLVESGGGLVQPGRSLRLSCRGSNFNFDDLAISWVRQAPGKGLEWLGFVRSKAYGETTDYVASVKGRFTISRDDSKFIAWLQMDSLKTDDTAVYYCTTFNYWGQGTLVTVSS
VL: QPVLTQPPSVSVAPGKTARISCGGNNIASEAVHWYQKKPGQAPVLVIYYDSDRPSGIPERFSGSNSGNTATLRISRVDAGDEADYYCQVWDRTTDQPVFGGGTKLTVL
notes: also called human anti-CTLA4 antibody CT1E1
Regarding B1, in assay [1], the Kd (usually the constant that tells how readily two partners part at equilibrium) was 1.81 nM; the dissociation rate constant (koff) (as a rule, a measure of how fast the partners let go of each other) came out at 0.000242 s⁻¹; the on-rate constant (kon) (in general, the rate constant with which the complex forms) amounted to 133000 M⁻¹ s⁻¹. For the same molecule, in assay [2], the half-inhibitory concentration (IC50) (as a rule, the concentration at which inhibition is half-maximal) stood at 0.313 nM. Also, the binding result in assay [3] is recorded as “binds”. Moreover, the concentration for half-maximal inhibition (IC50) in assay [4] was 0.329 nM.

B2: F7 (antibody, V domains shown)
VH: QVQLVQSGAEVKKPGASVKVSCKASGYAFDGHYMHWVRQAPGQRLEWMGWVDPHSGATNYAQNFQGGVTMTRDTSINTVYMELSSLKSDDTAVYYCARDFYDTSAKSGAFDIWGQGTMVTVSS
VL: AIQLTQSPSSVSASVGDRVTITCRASQGISSWLAWYQQKPGKAPKLLIYAASSLQSGVPSRFSGSGSGTDFTLTISSLQPEDFATYYCQQVNSFPWAFGQGTKVEIK
notes: captured by anti-human Fc antibody in SPR, so it has a human Fc; also called anti-CTLA4 antibody F7
Consider B2, for which, in assay [5], the dissociation constant (Kd) is 0.738 nM, the koff stood at 0.000217 s⁻¹ and the kon was 294000 M⁻¹ s⁻¹.

B3: E8 (antibody, V domains shown)
VH: QVQLVQSGAEVKKPGASVKVSCEASGYTFTNYYIHWLRQAPGQGLEWMGIINPSGGSTTYAQKFQGRITMTRDTSTNTLYMELSSLRSEDTAIYYCARRDCRGPSCYFAYWGQGTTVTVSS
VL: DIVMTQSPSSLSASVGDRVTITCRASQSISSYLNWYQQKPGKAPKLLIYAASSLQSGVPPRFSGSGSGTEFTLTISSLQPEDFATYYCQQANSFPPTFGQGTKVDIK
notes: also called antibody E8
In assay [6], B3 yielded a Kd of 58.9 nM, an off-rate (koff) of 0.00488 s⁻¹ and an association rate constant (kon) of 82900 M⁻¹ s⁻¹.

B4: F1 (antibody, V domains shown)
VH: EVQLVQSGAEVKKPGASVKVSCKASGYTFTSYGISWVRQAPGQGLEWMGWISAYNGNTNYAQKLQGRVTMTTDTSTSTAYMELRSLRSDDTAVYYCARVGYGGYFDYWGQGTLVTVSS
VL: SYELMQPPSVSKGLRQTATLTCTGNSNNVGNQGADWLQQHQGHPPKLLSYRNNDRPSGISERFSASRSGSTASLTITGLQPEDEADYYCLAWDSSLSAWVFGGGTKVTVL
With B4, in assay [7], the binding result was “binds”.
